Test results: patent publication US20170313754A1 (PROTAGONIST THERAPEUTICS, published 2017)
Each block holds one binder with its values, some of them ahead of it. Numbered stars: 1 amine (or outer) side, 2 acyl side, 3 side chain; on linkers, the order of the positions; unused ones are H or OH. Bridge positions count the residues as written; N and C are the ends. Square brackets hold non-standard residues; d marks the D form. Primed or numbered codes have the meaning given here. Ends that are not written are not given here. * marks the point of attachment. Ida = iminodiacetic acid, O=C(CN(CC(=O)[*:3])[*:1])[*:2]; PEG3′ = NH2CH2CH2(OCH2CH2)3CH2CH2CO2H (PEG3 linker); Dip = N[C@H](C(=O)O)C(c1ccccc1)c1ccccc1; Palmitoyl = CCCCCCCCCCCCCCCC(=O)*; pGlu = O=C1CC[C@@H](C(=O)O)N1; β3hP = O=C(O)C[C@@H]1CCCN1; Isovaleryl = CC(C)CC(=O)*; Isobutyryl = CC(C)C(=O)*; Octanoyl = CCCCCCCC(=O)*; βAla = NCCC(=O)O; Sar = CNCC(=O)O

Key:
[1] = target: T1, human ferroportin (SLC40A1) fused in frame with GFP, stably expressed in HEK293 cells (human, UniProt Q9NP59 1-571); experiment: cell-based or functional assay
T1 sequence (looked up): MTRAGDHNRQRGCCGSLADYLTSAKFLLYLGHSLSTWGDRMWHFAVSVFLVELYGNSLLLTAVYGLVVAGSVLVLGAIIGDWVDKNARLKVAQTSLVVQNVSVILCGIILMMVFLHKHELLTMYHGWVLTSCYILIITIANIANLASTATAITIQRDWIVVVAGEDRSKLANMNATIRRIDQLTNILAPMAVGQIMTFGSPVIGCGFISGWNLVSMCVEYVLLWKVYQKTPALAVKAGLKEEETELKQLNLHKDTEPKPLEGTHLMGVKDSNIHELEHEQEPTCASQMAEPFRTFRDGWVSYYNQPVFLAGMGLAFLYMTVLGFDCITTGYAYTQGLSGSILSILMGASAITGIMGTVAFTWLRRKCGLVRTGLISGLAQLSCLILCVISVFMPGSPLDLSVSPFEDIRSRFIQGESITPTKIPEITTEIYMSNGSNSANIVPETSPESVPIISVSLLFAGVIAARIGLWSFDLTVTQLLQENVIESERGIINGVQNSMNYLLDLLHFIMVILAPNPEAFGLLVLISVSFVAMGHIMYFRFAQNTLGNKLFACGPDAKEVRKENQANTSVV

[2] = target: T2, human ferroportin (SLC40A1) fused in frame with GFP, stably expressed in HEK293 cells (human, UniProt Q9NP59 1-571); experiment: cell-based or functional assay; remark: listed apart in the source
T2 sequence (looked up): T1 sequence (looked up)

Potency EC50 [1]: 0.093 µM
B1: Isobutyric acid-DTHFPIC1IFVC2HRSKGC2YRRC1R-NH2 (peptide)
peptide: Isobutyryl-DTHFPICIFVCHRSKGCYRRCR-NH2
modifications: disulfide 11-17, 7-21
SMILES: CC[C@H](C)[C@@H]1NC(=O)[C@@H](NC(=O)[C@@H](NC(=O)[C@@H]2CCCN2C(=O)[C@H](Cc2ccccc2)NC(=O)[C@H](Cc2c[nH]cn2)NC(=O)[C@@H](NC(=O)[C@H](CC(=O)O)NC(=O)C(C)C)[C@@H](C)O)[C@@H](C)CC)CSSC[C@@H](C(=O)N[C@@H](CCCNC(=N)N)C(N)=O)NC(=O)[C@H](CCCNC(=N)N)NC(=O)[C@H](CCCNC(=N)N)NC(=O)[C@H](Cc2ccc(O)cc2)NC(=O)[C@@H]2CSSC[C@H](NC(=O)[C@H](C(C)C)NC(=O)[C@H](Cc3ccccc3)NC1=O)C(=O)N[C@@H](Cc1c[nH]cn1)C(=O)N[C@@H](CCCNC(=N)N)C(=O)N[C@@H](CO)C(=O)N[C@@H](CCCCN)C(=O)NCC(=O)N2

Potency EC50 [1]: 0.063 µM
B2: Isobutyric acid-DTHFPIC1IFVC2HRSKGC2YRRC1R-NH2 (peptide)
peptide: Isobutyryl-DTHFPICIFVCHRSKGCYRRCR-NH2
modifications: disulfide 11-17, 7-21
SMILES: CC[C@H](C)[C@@H]1NC(=O)[C@@H](NC(=O)[C@@H](NC(=O)[C@@H]2CCCN2C(=O)[C@H](Cc2ccccc2)NC(=O)[C@H](Cc2c[nH]cn2)NC(=O)[C@@H](NC(=O)[C@H](CC(=O)O)NC(=O)C(C)C)[C@@H](C)O)[C@@H](C)CC)CSSC[C@@H](C(=O)N[C@@H](CCCNC(=N)N)C(N)=O)NC(=O)[C@H](CCCNC(=N)N)NC(=O)[C@H](CCCNC(=N)N)NC(=O)[C@H](Cc2ccc(O)cc2)NC(=O)[C@@H]2CSSC[C@H](NC(=O)[C@H](C(C)C)NC(=O)[C@H](Cc3ccccc3)NC1=O)C(=O)N[C@@H](Cc1c[nH]cn1)C(=O)N[C@@H](CCCNC(=N)N)C(=O)N[C@@H](CO)C(=O)N[C@@H](CCCCN)C(=O)NCC(=O)N2

Potency EC50 [1]: 0.001 µM
Binder: Isovaleryl-DTHFPCIKFGPRSK(Palmitoyl)GWVCK-NH2 (disulfide 6-18 (inferred)) [Isovaleric acid-DTHFPCIKFGPRS-K(Palm)-GWVCK-NH2]

Potency EC50 (nM), ferroportin-GFP internalization/degradation [2]: > 1000 nM
Binder: Isovaleryl-DTEFPCIKFEPRSKEWVCK-NH2 (disulfide 6-18 (inferred)) [Isovaleric acid-DTEFPCIKFEPRSKEWVCK-NH2]

Potency EC50 (nM) [1]: > 10000 nM
Binder: Isovaleryl-THFPCIIFGPRSKGWVCK-NH2 (disulfide 5-17 (inferred)) [Isovaleric acid-THFPCIIFGPRSKGWVCK-NH2]

Potency EC50 [1]: 0.264 µM
Binder: Isovaleryl-DTHF[βAla]CIIFGPRSKGWVCK-NH2 (not fully specified (bridges); cysteine pairing not given here) [Isovaleric acid-DTHF-[β-Ala]-CIIFGPRSKGWVCK-NH2]

Potency EC50 (nM) [1]: > 1000 nM
Binder: H-DTHF[βAla]CIIFGPRSKGWVCK-NH2 (disulfide 6-18 (inferred)) [Hy-DTHF-[β-Ala]-CIIFGPRSKGWVCK-NH2]

Potency EC50 [1]: 0.002 µM
Binder: Isovaleryl-DTHFPCIKFGPK(Palmitoyl)SKGWVCK-NH2 (not fully specified (bridges); cysteine pairing not given here) [Isovaleric acid-DTHFPCIKFGP-K(Palm)-SKGWVCK-NH2]

Potency EC50 (nM) [1]: > 10000 nM
Binder: H-DTHFPIAIFGPRSKGWVAM-NH2 [Hy-DTHFPIAIFGPRSKGWVAM-NH2]

Potency EC50 (nM) [1]: > 1000 nM
Binder: H-DTHF[Sar]CIIFGPRSKGWVCK-NH2 (disulfide 6-18 (inferred)) [Hy-DTHF-[Sarc]-CIIFGPRSKGWVCK-NH2]

Potency EC50 (nM) [1]: > 10000 nM
Binder: H-HFPCIIFGPRSKGWVCK-NH2 (disulfide 4-16 (inferred)) [Hy-HFPCIIFGPRSKGWVCK-NH2]

Potency EC50 (nM), ferroportin-GFP internalization/degradation [2]: > 10000 nM
Binder: Isovaleryl-DTHAPCIKF[Sar]PRSKGWECK-NH2 (disulfide 6-18 (inferred)) [Isovaleric acid-DTHAPCIKF-[Sarc]-PRSKGWECK-NH2]

Potency EC50 (nM), ferroportin-GFP internalization/degradation [2]: > 10000 nM
Binder: Isovaleryl-STHAPCIKFEPRSKGWECK-NH2 (disulfide 6-18 (inferred)) [Isovaleric acid-STHAPCIKFEPRSKGWECK-NH2]

Potency EC50 (nM), ferroportin-GFP internalization/degradation [2]: > 10000 nM
Binder: Isovaleryl-SKHAPCIKFEPRSKGWECK-NH2 (disulfide 6-18 (inferred)) [Isovaleric acid-SKHAPCIKFEPRSKGWECK-NH2]

Potency EC50 (nM) [1]: > 10000 nM
Binder: H-THFPCIIFGPRSKGWVCK-NH2 (disulfide 5-17 (inferred)) [Hy-THFPCIIFGPRSKGWVCK-NH2]

Potency EC50 [1]: 0.26 µM
B3: pGlu-THFPIC1IFVC2HRSKGC2YRRC1R-NH2 (peptide)
peptide: [pGlu]THFPICIFVCHRSKGCYRRCR-NH2
modifications: disulfide 11-17, 7-21
SMILES: CC[C@H](C)[C@@H]1NC(=O)[C@@H](NC(=O)[C@@H](NC(=O)[C@@H]2CCCN2C(=O)[C@H](Cc2ccccc2)NC(=O)[C@H](Cc2c[nH]cn2)NC(=O)[C@@H](NC(=O)[C@@H]2CCC(=O)N2)[C@@H](C)O)[C@@H](C)CC)CSSC[C@@H](C(=O)N[C@@H](CCCNC(=N)N)C(N)=O)NC(=O)[C@H](CCCNC(=N)N)NC(=O)[C@H](CCCNC(=N)N)NC(=O)[C@H](Cc2ccc(O)cc2)NC(=O)[C@@H]2CSSC[C@H](NC(=O)[C@H](C(C)C)NC(=O)[C@H](Cc3ccccc3)NC1=O)C(=O)N[C@@H](Cc1c[nH]cn1)C(=O)N[C@@H](CCCNC(=N)N)C(=O)N[C@@H](CO)C(=O)N[C@@H](CCCCN)C(=O)NCC(=O)N2

Potency EC50 (nM), ferroportin-GFP internalization/degradation [2]: > 10000 nM
Binder: Isovaleryl-DTHAPCIKFEPRSKEWECK-NH2 (not fully specified (bridges); cysteine pairing not given here) [Isovaleric acid-DTHAPCIKFEPRSKEWECK-NH2]

Potency EC50 (nM), ferroportin-GFP internalization/degradation [2]: 80 nM
Binder: Isovaleryl-DTHFPCIKFEPHSKEWVCK-NH2 (not fully specified (bridges); cysteine pairing not given here) [Isovaleric acid-DTHFPCIKFEPHSKEWVCK-NH2]

Potency EC50 (nM) [1]: > 10000 nM
Binder: Isovaleryl-HFPCIIFGPRSKGWVCK-NH2 (disulfide 4-16 (inferred)) [Isovaleric acid-HFPCIIFGPRSKGWVCK-NH2]

Potency EC50 (nM) [1]: > 1000 nM
Binder: H-DTHFKCIIFGPRSKGWVCK-NH2 (disulfide 6-18 (inferred)) [Hy-DTHFKCIIFGPRSKGWVCK-NH2]

Potency EC50 (nM) [1]: > 1000 nM
Binder: H-DTHFRCIIFGPRSKGWVCK-NH2 (disulfide 6-18 (inferred)) [Hy-DTHFRCIIFGPRSKGWVCK-NH2]

Potency EC50 (nM), ferroportin-GFP internalization/degradation [2]: 62 nM
Binder: Isovaleryl-DTHFPCIKFEPRSK(Octanoyl)EWVCK-NH2 (disulfide 6-18 (inferred)) [Isovaleric acid-DTHFPCIKFEPRS-K(octanoic acid)-EWVCK-NH2]

Potency EC50 (nM) [1]: > 1000 nM
Binder: H-DTHFGCIIFGPRSKGWVCK-NH2 (disulfide 6-18 (inferred)) [Hy-DTHFGCIIFGPRSKGWVCK-NH2]

Potency EC50 (nM), ferroportin-GFP internalization/degradation [2]: > 1000 nM
Binder: Isovaleryl-DTHFGCIKFEPRSKEWVCK-NH2 (not fully specified (bridges); cysteine pairing not given here) [Isovaleric acid-DTHFGCIKFEPRSKEWVCK-NH2]

Potency EC50 [1]: 0.009 µM
Binder: DTHFPCIKFKPRSKGWVCK (N-terminal isovaleric acid; Palm on the side chain of Lys 10; C-terminal amide) [Isovaleric acid-DTHFPCIKF-K(Palm)-PRSKGWVCK-NH2]

Potency EC50 (nM), ferroportin-GFP internalization/degradation [2]: > 10000 nM
Binder: Isovaleryl-DTHAPCIKFEPRSK[Sar]WECK-NH2 (disulfide 6-18 (inferred)) [Isovaleric acid-DTHAPCIKFEPRSK-[Sarc]-WECK-NH2]

Potency EC50 (nM) [1]: > 10000 nM
Binder: H-DTHFPCRRFGPRSKGWVC-NH2 (disulfide 6-18 (inferred)) [Hy-DTHFPCRRFGPRSKGWVC-NH2]

Potency EC50 (nM) [1]: > 10000 nM
B4: Hy-DTHFPC1IIFVC2HRSKGC2YWAVC1FW-NH2 (peptide)
peptide: H-DTHFPCIIFVCHRSKGCYWAVCFW-NH2
modifications: disulfide 11-17, 6-22
SMILES: CC[C@H](C)[C@@H]1NC(=O)[C@@H](NC(=O)[C@@H]2CCCN2C(=O)[C@H](Cc2ccccc2)NC(=O)[C@H](Cc2c[nH]cn2)NC(=O)[C@@H](NC(=O)[C@@H](N)CC(=O)O)[C@@H](C)O)CSSC[C@@H](C(=O)N[C@@H](Cc2ccccc2)C(=O)N[C@@H](Cc2c[nH]c3ccccc23)C(N)=O)NC(=O)[C@H](C(C)C)NC(=O)[C@H](C)NC(=O)[C@H](Cc2c[nH]c3ccccc23)NC(=O)[C@H](Cc2ccc(O)cc2)NC(=O)[C@@H]2CSSC[C@H](NC(=O)[C@H](C(C)C)NC(=O)[C@H](Cc3ccccc3)NC(=O)[C@H]([C@@H](C)CC)NC1=O)C(=O)N[C@@H](Cc1c[nH]cn1)C(=O)N[C@@H](CCCNC(=N)N)C(=O)N[C@@H](CO)C(=O)N[C@@H](CCCCN)C(=O)NCC(=O)N2

Potency EC50 [1]: 0.017 µM
Binder: [Ida]TH[Dip][β3hP]ICIFGPRSKGWVCM-NH2 (disulfide 7-18 (inferred)) [[Ida]-TH-[Dpa]-[bhPro]-ICIFGPRSKGWVCM-NH2]

Potency EC50 (nM), ferroportin-GFP internalization/degradation [2]: 157 nM
Binder: Isovaleryl-DTHFPCIIF[PEG3′]C-NH2 (cysteine pairing not given here) [Isovaleric acid-DTHFPCIIF-[PEG3]-C-NH2]
